Like-named read-outs stand apart in the source and are kept apart here. Where no end group is shown, it is not given here. The star is where a group is joined. azido = [N-]=[N+]=N*
Key:
[1] = target: T1, human NPY1-R (human, UniProt P25929)
[2] = target: T1, human NPY1-R; remark: listed apart in the source
[3] = target: T2, human GLP-1R (human, UniProt P43220); assay: cell-based or functional assay
[4] = target: T1, human NPY1-R; assay: cell-based or functional assay
[5] = target: T2, human GLP-1R; assay: cell-based or functional assay; remark: listed apart in the source
[6] = target: T3, human NPY2-R (human, UniProt P49146); assay: cell-based or functional assay
T3 sequence: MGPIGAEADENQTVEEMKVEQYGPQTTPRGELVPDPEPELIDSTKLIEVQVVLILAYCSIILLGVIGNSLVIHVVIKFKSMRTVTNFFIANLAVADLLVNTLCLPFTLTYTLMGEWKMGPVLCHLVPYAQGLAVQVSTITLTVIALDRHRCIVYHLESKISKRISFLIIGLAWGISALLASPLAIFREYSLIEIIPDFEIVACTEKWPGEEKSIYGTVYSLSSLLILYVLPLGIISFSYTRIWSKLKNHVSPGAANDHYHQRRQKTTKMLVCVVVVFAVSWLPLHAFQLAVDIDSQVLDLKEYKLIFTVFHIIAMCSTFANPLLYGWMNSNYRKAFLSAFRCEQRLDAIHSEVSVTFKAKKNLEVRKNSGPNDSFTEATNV

[7] = target: T1, human NPY1-R; assay: cell-based or functional assay; remark: listed apart in the source

PYY1-36 (ligand)
EC50 Y1R [1]: 12 nM | EC50 (agonism of the Y1-R) [2]: 42 nM

HSQGTFTSDLSK(azido)YLEEEAVREFIAWLKNGGPSRHYLNLVTRQRY-NH2 [GEP44]
EC50 [3]: 300000 nM | EC50 (agonism of the Y1-R) [4]: 83 nM | EC50 GLP1R [5]: 0.33 nM | EC50 Y2R [6]: 10 nM | EC50 Y1R [7]: 24 nM

HGEGTFTSDLSKQMEEEAVRLFIEWLKNGGPSSTRQRY (C-terminal amidation; K12-azido modification) [EP38]
EC50 GLP1R [5]: 0.08 nM | EC50 Y2R [6]: > 300 nM

HSQGTFTSDLSK(azido)QINEEEAVRLFIEWLKNGGPSRHYLNLVTRQRY-NH2 [EP44]
EC50 Y1R [7]: > 100 nM

Source: patent US20220204581A1, “MONOMERIC PEPTIDE MULTI-AGONIST […] THE GLP1 RECEPTOR AND NPY RECEPTORS” (SYRACUSE UNIVERSITY, published 2022)
